Experimental data taken from patent US7056679 (ANTYRA, dated 2006).

T1: DGI-2 polypeptide (UniProt Q15004 1-111, limits assumed)
T1 construct: Soluble recombinant protein coated at 500 ng/well; vector tag of pIVEX2.3-MCS not described for this construct; also called KIAA0101
T1 sequence (looked up): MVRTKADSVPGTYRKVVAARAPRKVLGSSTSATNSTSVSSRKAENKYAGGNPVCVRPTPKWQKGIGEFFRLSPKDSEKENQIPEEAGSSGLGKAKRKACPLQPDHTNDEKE


How the values were obtained:
Experiment in all cases: phage ELISA
[1] = target: T2, lactate dehydrogenase (LDH)
T2 construct: Coated at 500 ng/well as non-specific target; also called LDH polypeptide
Experimental: (§1) For analysis of individual target binders, colonies were picked and phage prepared as described above using helper phage, M13KO7. Ninety-six-well microtiter plates were coated with 500 ng/well of specific target protein, 500 ng/well lactate dehydrogenase (LDH) irrelevant or non-specific target, 500 ng/well of positive control antibody raised against ETAG, and negative control of non-fat milk powder-PBS 2% at 4° C. overnight. Plates were then blocked with 350 microliters/well PBS containing 2% non-fat milk for 1 hr at room temperature. One hundred microliters per well of phage from isolated clones were added and plates were incubated at room temperature for 2 hr after centrifuging samples for 20 minutes at 3500 rpm at 4° C. The phage solution was then removed, and the wells were washed three times with PBS at room temperature. Antibody raised against M13 conjugated to horseradish peroxidase (Pharmacia) was diluted 1:3000 in PBS-Tween and added to each well (100 µl/well). Incubation was for 1 hr at room temperature, followed by washing with PBS-(0.5%) Tween 3 times as described. Color was developed by addition of ABTS solution (100 µl/well; Boehringer, Indianapolis, Ind.). Plates were analyzed at 405 nm. A clone was considered "positive" if the $A405$ of the well was $\geq$2-fold over background.

[2] = target: T3, antibody raised against ETAG
T3 construct: Coated at 500 ng/well; also called E-tag antibody
Experimental: as §1

DGI-2 polypeptide = target: T1, DGI-2 polypeptide
Experimental: as §1

Binder	LDH (OD) [1]	ETAG (OD) [2]	DGI-2 (OD) (DGI-2 polypeptide)	DGI-2/LDH (DGI-2 polypeptide)
DRHRAFVAEGLDGFRHSTGVAAAGAPVPYPDPLEPRP [DGI-2-20F-PP-D4]	1.1 OD	44 OD	2.6 OD	2.3 ratio
RISVGQCGTSRCGGGRRGGGAAAGAPVPYPDPLEPRP [DGI-2-20F-PP-D1]	1.1 OD	3 OD	2 OD	1.9 ratio
VSGVPDGSMRAAQLASGYWCAAAGAPVPYPDPLEPRP [DGI-2-20F-PP-G2]	1.1 OD	5.6 OD	2.4 OD	2.1 ratio
FGSTAYADMLSQFRKFAMNISAAAGAPVPYPDPLEPRP [DGI-2-20F-PP-E1]	1 OD	33.4 OD	1.8 OD	1.9 ratio
CCAWNGVGVGGLGWRVVVGPAAAGAPVPYPDPLEPRP [DGI-2-20F-PP-H4]	1 OD	32.9 OD	2.1 OD	2.2 ratio
PVYRVAMCRISVGCSAGAWFAAAGAPVPYPDPLEPRP [DGI-2-20F-PP-C12]	0.9 OD	36.4 OD	2.5 OD	2.9 ratio
SAFGCPLPRALGGGGARFYAAAAGAPVPYPDPLEPRP [DGI-2-20F-PP-E11]	0.9 OD	15.2 OD	2 OD	2.2 ratio
LLLPVRWRDAQPRSLLMEWIAAAGAPVPYPDPLEPRP [DGI-2-20F-PP-F8]	1.1 OD	7.6 OD	2 OD	1.9 ratio
EGQRVVFLFGALVAGLCWRDRAAAGAPVPYPDPLEPRP [DGI-2-20F-PP-F3]	1.1 OD	18.7 OD	2.6 OD	2.2 ratio
VVGYAQGDGLEGGLGSSRDGSAAAGAPVPYPDPLEPRP [DGI-2-20F-PP-D8]	1.1 OD	2.6 OD	2.3 OD	2.2 ratio
SLLCVVCRPVSGGRALGGVPAAAGAPVPYPDPLEPRP [DGI-2-20F-PP-B42]	1 OD	21.5 OD	2.4 OD	2.5 ratio
RQRSGGRWVVDRVTRVASTSPAAAGAPVPYPDPLEPRP [DGI-2-20F-PP-B12]	1.1 OD	1.9 OD	2.3 OD	2.2 ratio
SRGMAEAQFSAWPVLAVFPLAAAGAPVPYPDPLEPRP [DGI-2-20F-PP-H8]	0.9 OD	32.4 OD	1.6 OD	1.9 ratio
VQSGRDLGGLLRGGTGTEASPAAAGAPVPYPDPLEPRP [DGI-2-20F-PP-D3]	0.9 OD	15 OD	2.2 OD	2.4 ratio
GASRVVDVGWRFWGKLWQRSAAAGAPVPYPDPLEPRP [DGI-2-20F-PP-G5]	1.2 OD	27.7 OD	2.4 OD	2 ratio
VTGTRFRGFAVACVRMGTWHAAAGAPVPYPDPLEPRP [DGI-2-20F-PP-F2]	1 OD	1.9 OD	2.4 OD	2.5 ratio
RDHRYVGWGRATFRHDQSVWAAAGAPVPYPDPLEPRP [DGI-2-20F-PP-H1]	1.2 OD	1.4 OD	1.7 OD	1.4 ratio
CYLSRLFRSGQGIGQFGHVEAAAGAPVPYPDPLEPRP [DGI-2-20F-PP-A82]	1.1 OD	16.5 OD	2.5 OD	2.3 ratio
KVWGCGARRGWERLGHLNQVAAAGAPVPYPDPLEPRP [DGI-2-20F-PP-B10]	0.8 OD	27.1 OD	1.9 OD	2.4 ratio
LFRFSGTGMASLPCVGWHLVAAAGAPVPYPDPLEPRP [DGI-2-20F-PP-B6]	1 OD	37 OD	2.5 OD	2.6 ratio
GGSLPVKSGQLVTCCTSKGGAAAGAPVPYPDPLEPRP [DGI-2-20F-PP-F5]	0.9 OD	16.3 OD	2.3 OD	2.5 ratio
RRFVRCSVPVALRSAVPVSVAAAGAPVPYPDPLEPRP [DGI-2-20F-PP-A10]	1 OD	16.3 OD	2.4 OD	2.4 ratio
VGQSSGDARPLANLFVFPFVAAAGAPVPYPDPLEPRP [DGI-2-20F-PP-F12]	0.9 OD	47.6 OD	2.1 OD	2.3 ratio
FRVALLSVSAGPCEGSGNTAAAGAPVPYPDPLEPRP [DGI-2-20F-PP-H7]	0.8 OD	3.7 OD	1.8 OD	2.1 ratio
SVTISTSCRTGCPAGYLRRDAAAGAPVPYPDPLEPRP [DGI-2-20F-PP-D2]	0.7 OD	30.8 OD	2.2 OD	3.1 ratio
FGRDGDGIQRRQGGFSWVGDRAAAGAPVPYPDPLEPRP [DGI-2-20F-PP-E2]	0.7 OD	11.6 OD	1.7 OD	2.4 ratio
TPVAISIPAGVCSTSVCGRDAAAGAPVPYPDPLEPRP [DGI-2-20F-PP-C11]	0.9 OD	3.2 OD	2.4 OD	2.6 ratio
MGADTCMGGKMPFDQMFGAVAAAGAPVPYPDPLEPRP [DGI-2-20F-PP-E10]	1.2 OD	44.6 OD	2 OD	1.7 ratio
SVSGGGVFGTGGRVRHQVSGAAAGAPVPYPDPLEPRP [DGI-2-20F-PP-C5]	0.9 OD	33.9 OD	2.2 OD	2.4 ratio
